The values that follow are results of earlier work, collected in article PMC3403913.

pKd: −log10 of the molar value.

As usually defined, the pKd is the negative decadic logarithm of the Kd, by convention in mol/L.

The target of this series is factor Va (Homo sapiens) (UniProt P12259).
UniProt P12259, sequence (P12259 29-737, chain 1 of 2): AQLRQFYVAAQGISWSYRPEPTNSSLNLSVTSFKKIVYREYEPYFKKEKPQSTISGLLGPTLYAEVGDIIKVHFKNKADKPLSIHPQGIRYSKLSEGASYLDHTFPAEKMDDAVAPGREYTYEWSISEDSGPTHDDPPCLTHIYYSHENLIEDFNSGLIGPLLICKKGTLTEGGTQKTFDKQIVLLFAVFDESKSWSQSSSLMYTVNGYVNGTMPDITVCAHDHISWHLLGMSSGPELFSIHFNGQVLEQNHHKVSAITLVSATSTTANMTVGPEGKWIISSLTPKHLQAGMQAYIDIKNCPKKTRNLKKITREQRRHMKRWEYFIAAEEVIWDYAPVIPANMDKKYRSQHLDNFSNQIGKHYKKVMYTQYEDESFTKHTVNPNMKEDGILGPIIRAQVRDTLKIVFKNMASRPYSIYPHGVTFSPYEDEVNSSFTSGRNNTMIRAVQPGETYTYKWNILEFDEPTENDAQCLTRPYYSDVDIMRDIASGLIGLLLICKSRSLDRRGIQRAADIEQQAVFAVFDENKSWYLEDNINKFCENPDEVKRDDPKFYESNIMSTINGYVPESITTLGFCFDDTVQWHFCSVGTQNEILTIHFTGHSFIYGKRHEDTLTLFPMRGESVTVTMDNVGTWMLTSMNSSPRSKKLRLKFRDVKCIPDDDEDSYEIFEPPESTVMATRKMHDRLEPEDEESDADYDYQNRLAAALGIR
UniProt P12259, sequence (P12259 1574-2224, chain 2 of 2): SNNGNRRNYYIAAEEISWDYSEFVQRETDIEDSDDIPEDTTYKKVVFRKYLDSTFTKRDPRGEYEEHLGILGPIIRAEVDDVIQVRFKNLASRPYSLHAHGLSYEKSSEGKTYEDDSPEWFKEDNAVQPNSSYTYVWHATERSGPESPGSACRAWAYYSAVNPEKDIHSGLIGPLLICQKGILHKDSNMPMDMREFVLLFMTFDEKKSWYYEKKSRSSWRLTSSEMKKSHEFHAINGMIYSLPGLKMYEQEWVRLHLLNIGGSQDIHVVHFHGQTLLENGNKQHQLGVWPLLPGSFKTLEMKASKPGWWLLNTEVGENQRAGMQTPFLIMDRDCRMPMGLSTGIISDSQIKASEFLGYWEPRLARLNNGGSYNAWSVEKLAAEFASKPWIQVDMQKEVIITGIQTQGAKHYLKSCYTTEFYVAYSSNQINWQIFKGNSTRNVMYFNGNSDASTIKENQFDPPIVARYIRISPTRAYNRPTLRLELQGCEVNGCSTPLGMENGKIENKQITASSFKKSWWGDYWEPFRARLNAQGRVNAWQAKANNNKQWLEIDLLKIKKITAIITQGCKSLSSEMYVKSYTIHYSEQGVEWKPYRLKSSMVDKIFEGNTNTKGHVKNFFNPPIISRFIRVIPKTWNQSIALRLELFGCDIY

factor Xa (from UniProt P00742): the pKd was 9.30.
